Results taken from patent US20170137512A1.
Where two headings read alike, the source gives them in different places.

Assays:
[1] = biological target: human Kv1.3 (Homo sapiens) (UniProt P22001); test: cell-based or functional assay
[2] = biological target: T1, cyno Kv1.3 (Macaca fascicularis)
T1 chain: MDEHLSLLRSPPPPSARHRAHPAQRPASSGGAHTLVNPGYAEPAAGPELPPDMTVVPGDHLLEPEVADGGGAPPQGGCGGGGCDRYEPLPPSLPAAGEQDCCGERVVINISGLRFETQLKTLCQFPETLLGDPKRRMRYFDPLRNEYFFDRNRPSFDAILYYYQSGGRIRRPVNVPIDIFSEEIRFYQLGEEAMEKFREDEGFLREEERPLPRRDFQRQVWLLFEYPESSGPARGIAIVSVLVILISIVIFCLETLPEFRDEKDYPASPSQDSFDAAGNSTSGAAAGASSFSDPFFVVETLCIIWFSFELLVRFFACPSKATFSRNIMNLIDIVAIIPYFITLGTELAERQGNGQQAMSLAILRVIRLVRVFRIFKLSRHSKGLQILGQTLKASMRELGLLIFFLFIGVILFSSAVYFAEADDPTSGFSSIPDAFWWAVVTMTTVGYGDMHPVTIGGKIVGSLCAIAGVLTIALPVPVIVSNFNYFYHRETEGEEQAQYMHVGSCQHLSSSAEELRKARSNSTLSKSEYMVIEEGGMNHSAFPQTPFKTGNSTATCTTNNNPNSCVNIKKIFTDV

[3] = biological target: human Kv1.3 (Homo sapiens), P22001; test: cell-based or functional assay
[4] = biological target: T1, cyno Kv1.3 (Macaca fascicularis); test: titration of radiolabeled margatoxin on CHO-cyKv1.3 cells
[5] = biological target: human Kv1.3 (Homo sapiens), P22001
[6] = biological target: human Kv1.3 (Homo sapiens), P22001; remark: listed apart in the source
[7] = biological target: human Kv1.3 (Homo sapiens), P22001; test: cell-based or functional assay; remark: listed apart in the source

B1: A0194016B04 (VHH, not shown: small tags and cut ends)
VHH: EVQLVESGGGLVQAGGSLRLSCSASGLLFSVNSAGWYRQAPGKQRDFVARIRSGGSTNYADSVKGRFTISRDKATNTLYLQMNNLKPEDTAVYYCSSWRTEAYEYWGRGTLVTVSS
Q: Which results are given for B1?
A: Average IC50, Kv1.3 current, IonFlux automated patch clamp, HEK293H cells [1]: 84 nM; Average IC50, Kv1.3 current, IonWorks perforated patch clamp, CHL cells [1]: 34 nM

Q: Which results are given for TIINVKCTSPKQCLPPCKAQFGQSAGAKCMNGKCKCYPH (modifications not checked) [unlabeled margatoxin (Alamone labs, Cat RTM-325), P40755 1-39]?
A: IC50 [2]: 0.24 nM; IC50, IFNγ read out, CCR7-CD45RA- T cells stimulated with anti-CD3 [3]: 0.094 nM

Q: With TIINVKCTSPKQCLPPCKAQFGQSAGAKCMNGKCKCYPH (modifications not checked) [125I-margatoxin (Perkin Elmer, NEX083), P40755 1-39] as the binder, how does the EC30 [4] read?
A: 0.15 nM

B2: A0194020A06 (VHH, not shown: small tags and cut ends)
VHH: EVQLVESGGGLVQAGGSLGLSCSASGLLFSRNSAGWYRQAPGKRREFVARIRMGGSINYADSVKGRFTVSRDNAKNMMYLQMNDLKPEDTAVYFCSGWREGFYEYWGQGTLVTVSS
Q: For B2, which Average IC50, Kv1.3 current, IonFlux automated patch clamp, HEK293H cells [1] is on record?
A: 13.4 nM

Q: And the IC50, CD25 read out, CCR7-CD45RA- T cells stimulated with anti-CD3 [1]?
A: 36 nM

Q: What about the IC50, IFNγ read out, CCR7-CD45RA- T cells stimulated with anti-CD3 [1] of the same binder?
A: 30 nM

Q: Which results are given for RSCIDTIPKSRCTAFQCKHSMKYRLSFCRKTCGTC (modifications not checked) [ShK-1aJ (Smartox, #08SHK001), P29187 1-35]?
A: IC50 [2]: 0.24 nM; % inhibition [5]: 102%; IC50 (read off the curve) [6]: 10 nM; IC50, CD25 read out, CCR7-CD45RA- T cells stimulated with anti-CD3 [7]: 0.22 nM; IC50, IFNγ read out, CCR7-CD45RA- T cells stimulated with anti-CD3 [7]: 0.065 nM; Average IC50, Kv1.3 current, IonFlux automated patch clamp, HEK293H cells [3]: 0.076 nM; Average IC50, Kv1.3 current, IonWorks perforated patch clamp, CHL cells [3]: 0.4 nM; IC50, CD25 read out, CCR7-CD45RA- T cells stimulated with anti-CD3 [3]: 0.27 nM; IC50, CD25 read out, T cell activation assay [3]: 0.73 nM; IC50, CD25 read out, T cell activation assay, with 10 µM HSA [3]: 0.038 nM; IC50, IFNγ production, T-cell activation assay [3]: 0.041 nM; IC50, IFNγ read out, CCR7-CD45RA- T cells stimulated with anti-CD3 [3]: 0.076 nM; IC50, IFNγ read out, T cell activation assay [3]: 0.14 nM; IC50, IFNγ read out, T cell activation assay, with 10 µM HSA [3]: 0.027 nM
